Experimental findings from patent US20240409645A1 are described below.

One test concerns the target T1, mouse IL-2Rβ (mouse) (UniProt P16297).
T1 sequence (looked up): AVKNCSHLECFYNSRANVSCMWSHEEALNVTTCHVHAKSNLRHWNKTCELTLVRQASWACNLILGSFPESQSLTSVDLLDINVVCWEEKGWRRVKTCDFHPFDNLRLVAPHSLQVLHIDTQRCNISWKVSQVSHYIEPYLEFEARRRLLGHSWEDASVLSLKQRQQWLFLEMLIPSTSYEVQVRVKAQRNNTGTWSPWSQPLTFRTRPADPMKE
Briefly: P.E. binding ELISA, mouse IL-2Rβ coated.

The target in a further test is T2, mouse IL-2Rγ (mouse) (UniProt P34902).
T2 sequence (looked up): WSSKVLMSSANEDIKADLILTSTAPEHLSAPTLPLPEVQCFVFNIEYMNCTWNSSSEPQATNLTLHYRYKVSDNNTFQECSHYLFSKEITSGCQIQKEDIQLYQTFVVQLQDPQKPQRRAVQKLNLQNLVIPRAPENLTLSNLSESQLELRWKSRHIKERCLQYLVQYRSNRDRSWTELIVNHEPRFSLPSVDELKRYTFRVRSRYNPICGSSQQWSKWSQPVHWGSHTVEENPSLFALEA
The test can be described thus: P.E. binding ELISA. On the technique in general: In an ELISA, binding on a coated surface is turned into a signal by an enzyme label.

Test [1] addresses cynomolgus monkey IL-2Rγ/CD132 subunit (cynomolgus monkey). Briefly: ELISA, monovalent VHH-hFc.
Test [2] has as its target T3, human common cytokine receptor γ-chain (γc; IL-2Rγ; CD132), recombinant protein (human) (UniProt P31785).
T3 sequence: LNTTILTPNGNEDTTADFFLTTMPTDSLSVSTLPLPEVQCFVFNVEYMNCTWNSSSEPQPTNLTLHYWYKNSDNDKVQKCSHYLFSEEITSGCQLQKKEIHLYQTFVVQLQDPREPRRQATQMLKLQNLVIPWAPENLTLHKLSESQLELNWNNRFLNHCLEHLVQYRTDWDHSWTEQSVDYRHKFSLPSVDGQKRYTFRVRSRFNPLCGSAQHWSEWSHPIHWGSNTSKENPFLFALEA
Briefly: ELISA, monovalent VHH-hFc.

The target of test [3] is cynomolgus monkey IL-2Rγ/CD132 subunit (cynomolgus monkey). Briefly: ELISA, monovalent; EC50 cyno vs human subunit.
cynomolgus monkey IL-2Rγ/CD132 subunit (cynomolgus monkey), sequence (chain, as listed by the source): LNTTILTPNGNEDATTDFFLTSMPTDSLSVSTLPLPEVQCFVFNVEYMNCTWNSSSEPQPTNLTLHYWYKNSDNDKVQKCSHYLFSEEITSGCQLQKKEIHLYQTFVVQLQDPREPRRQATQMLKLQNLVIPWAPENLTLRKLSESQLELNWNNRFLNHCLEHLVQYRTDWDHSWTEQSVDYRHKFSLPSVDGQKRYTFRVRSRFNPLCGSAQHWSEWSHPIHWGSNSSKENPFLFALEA
Test [4] has as its target T4, mouse common cytokine receptor γ-chain (IL-2Rγ) (mouse) (UniProt P34902).
T4 sequence (looked up): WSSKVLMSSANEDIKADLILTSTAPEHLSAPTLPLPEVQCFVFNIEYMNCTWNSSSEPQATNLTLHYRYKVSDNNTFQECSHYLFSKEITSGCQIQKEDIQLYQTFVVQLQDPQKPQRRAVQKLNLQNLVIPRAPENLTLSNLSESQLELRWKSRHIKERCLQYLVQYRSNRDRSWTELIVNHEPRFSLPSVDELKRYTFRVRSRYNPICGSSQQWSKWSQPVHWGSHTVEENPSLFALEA
The test can be described thus: P.E. binding ELISA.

B1: FJ1427 P035MP06A08 (VHH)
VHH: EVQLVESGGGLVQAGESLRLSCAASGQYFSTYSMAWFRRTPGKEREFVTIISESGGIKEYVDSVKGRFTVSRDNAKNTVYLQMNSLKPEDTAVYYCAAARDWFARNEYQYDYWGQGTQVTVSS
B1 registered an OD450 nm (P.E. binding ELISA) with mouse IL-2Rβ (mouse) of 0.047 OD450 nm.

B2: 32-MP04A08 VHH (periplasmic extract) (VHH)
VHH: QVQLVESGGGLVQAGGSLRLSCAASGRTFGSTAVGWFRQVPGKEREFVSAINRSGSATTYADSVKGRFTISRDNAKNTVYLQMNSLTPEDTGVYYCAADSLPYGRPYYFQRSAGEYDYWGQGTQVTVSS
Take B2: the OD450 nm in the test with mouse IL-2Rγ (mouse) was 0.05 OD450 nm.

B3: 38-MP07A11 VHH-hFc, monospecific monovalent (Fc fusion, part only; not given: Both Fc arms and linker, not shown: another chain or arm of the molecule; a dimerising Fc or GST; small tags and cut ends)
VHH: QVQLVESGGGLVQAGGSLRLSCAASGRSLSRDAMGWFRQAPGKEREFVAVMSWGGDTFYTDSVEGRFTFSRDNAKNAVYLEMNDLQPEDTAVYYCAAAPTSFATTAYSSSNSYSYWGRGTQVTVSS
On to B3, for which the results for the EC50 in test [1] and in test [2] were 160 pM and 107 pM, respectively. The same molecule displayed a Fold change in test [3] of 1.5 fold.

B4: FJ1427_P035MP04F12 (VHH)
VHH: QVQLQESGGGWVQVGESLRLSCVPSGRTFVSGIMGWFRQAPGKEREFVARIILNNNSTRYTDSVKGRFTISRDSAKNTMYLQMNTLRPEDTAVYYCAARDRYGSGNSLSPSAYDYWGQGTQVTVSS
In turn, B4 gave a PE binding ELISA OD in test [4] of 0.049 OD450 nm.

B5: FJ1427_P035MP07C02 (VHH)
VHH: EVQLVESGGGWVQVGESLRLSCAPSGRTFVSGIMGWFRQTPGKEREFVARIILNNNSTRYTDSVKGRFTISRDSAKNTMYLQMNTLRPEDTAVYYCAARDRYGSGNSLSPSAYDYWGQGTQVTVSS
In the case of B5, the PE binding ELISA OD in test [4] was 0.044 OD450 nm.

B6: FJ1427_P035MP06F09 (VHH)
VHH: QVQLVESGGGLVQAGGSLTLSCAASGRAFSNYPVGWFRQAPGKEREFVAAITWLSGSTLYADSVEGRFTISRDNAKNTVYLLMSSLKPEDTALYFCAAALKTITRGQNDYSYWGQGTQVTVSS
The molecule B6 returned an OD450 nm (P.E. binding ELISA) with mouse IL-2Rβ (mouse) of 0.046 OD450 nm.

B7: 35-MP07G01 VHH (periplasmic extract) (VHH)
VHH: QVQLQESGGGLVQGGGSLRLSCAASGGIFSSYAMGWFRQAPGKEREFVAAISRSGRSTNYADSVKGRFTISRDNAKSTVYLQMNSLKPEETAVYYCAAGRYYNSAYDPSPGDFGSWGHGTQVTVSS
On to B7, for which the OD450 nm in the test with mouse IL-2Rγ (mouse) was 0.045 OD450 nm.

B8: 27-MP04G01 VHH (periplasmic extract) (VHH)
VHH: QVQLVESGGGLVQAGGSLTLSCAAPGRTFGTDVVGWFRQAPGKEREFVASISRSGDGIYYDDSVKGRFTISRNNAWNTVNLQMNSLKVEDTAVYYCAAGDGWSTYDYWGQGTQVTVSS
B8 returned an OD450 nm with mouse IL-2Rγ (mouse) of 0.048 OD450 nm.

B9: 34-MP04A12 VHH-hFc, monospecific monovalent (Fc fusion, part only; not given: Both Fc arms and linker, not shown: another chain or arm of the molecule; a dimerising Fc or GST; large carriers; small tags and cut ends)
VHH: QVQLVESGGGLVQAGSSLRLSCAASGRTLSRLAMGWFRQAPGKEREFVAVNSWGGDTFYADSVEGRFTYSRDNAKSAVYLQMNSLQPEDTAVYYCAAAPTSFATTAYSSSNSYAYWGQGAQVTVSS
As for B9, the EC50 was found to be 158 pM in test [1] and 132 pM in test [2]. Further, the Fold change in test [3] stood at 1.2 fold.

B10: 29-MP04H02 VHH (periplasmic extract) (VHH)
VHH: QVQLVESGGGLVQAGGSLRLACVASGLTFDNYYMGWFRQAPGKEREFVAGIIWNGDHTAYADSIKGRFTISRDNAKNTAYLRMNSLKPEDTAVYYCAATFWIERATTPDIGQYAYWGQGTQVTVSS
Consider B10, for which the OD450 nm with mouse IL-2Rγ (mouse) came to 0.05 OD450 nm.

B11: 29-MP04H02 VHH-hFc, monospecific monovalent (Fc fusion, part only; not given: Both Fc arms and linker, not shown: another chain or arm of the molecule; a dimerising Fc or GST; large carriers; small tags and cut ends)
VHH: QVQLVESGGGLVQAGGSLRLACVASGLTFDNYYMGWFRQAPGKEREFVAGIIWNGDHTAYADSIKGRFTISRDNAKNTAYLRMNSLKPEDTAVYYCAATFWIERATTPDIGQYAYWGQGTQVTVSS
With B11, the EC50 in test [1] stood at 534 pM; in test [2], 683 pM. In test [3], the Fold change stood at 0.8 fold.

B12: 37-MP07F09 VHH-hFc, monospecific monovalent (Fc fusion, part only; not given: Both Fc arms and linker, not shown: another chain or arm of the molecule; a dimerising Fc or GST; small tags and cut ends)
VHH: QVQLVESGGGLVQAGGSLRLSCAASGRTLSRYAMGWFRQAPGKEREYVAIDSWGGDTFYADSVEGRFTFSRDNAKNEVYLQMNSLQPEDTAVYYCAGAPTSFATTAYSSSNSYRYWGQGTQVTVSS
Turning to B12, the EC50 in test [1] amounted to 97 pM; in test [2], 81 pM. This molecule also came in with a Fold change in test [3] of 1.2 fold.

Broadly, the EC50 is the concentration giving half of the maximal effect.
